Results reported in patent publication US20200283507A1 (US Dept. of Health and Human Services, published 2020).

T1: Hu/NoV/GI.1/Norwalk/1968/U.S. VLP (human norovirus GI.1, UniProt Q83884 1-530 (Norovirus (strain entry), limits assumed))
T1 construct: mature; full-length VP1 (ORF2) assembled as virus-like particle in baculovirus/Sf9; also called Norwalk VLP; NV
T1 sequence (looked up): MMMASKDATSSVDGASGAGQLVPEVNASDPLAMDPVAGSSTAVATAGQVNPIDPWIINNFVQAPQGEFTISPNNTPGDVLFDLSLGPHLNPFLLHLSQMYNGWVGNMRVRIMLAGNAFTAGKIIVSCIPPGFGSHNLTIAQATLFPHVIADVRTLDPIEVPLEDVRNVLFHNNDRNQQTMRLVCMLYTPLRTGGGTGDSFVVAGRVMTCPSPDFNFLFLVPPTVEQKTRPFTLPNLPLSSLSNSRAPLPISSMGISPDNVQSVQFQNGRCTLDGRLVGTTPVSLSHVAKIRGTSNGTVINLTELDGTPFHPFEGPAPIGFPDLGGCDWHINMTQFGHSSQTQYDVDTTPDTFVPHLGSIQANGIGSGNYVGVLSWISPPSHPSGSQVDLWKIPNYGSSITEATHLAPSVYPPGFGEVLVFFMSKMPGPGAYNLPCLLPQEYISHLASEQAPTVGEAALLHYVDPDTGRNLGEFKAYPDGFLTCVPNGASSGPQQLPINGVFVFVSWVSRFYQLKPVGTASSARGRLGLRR


Assays:
[1] = biological target: T1, Hu/NoV/GI.1/Norwalk/1968/U.S. VLP; assay: VLP ELISA
[2] = biological target: T2, Hu/NoV/GI.1/P7-587/2007/Stromstad/Sweden VLP (human norovirus GI.1); assay: VLP ELISA
T2 construct: mature; baculovirus VLP; VP2 may be present; also called Norovirus 2007

[3] = biological target: T2, Hu/NoV/GI.1/P7-587/2007/Stromstad/Sweden …; assay: cell-based or functional assay
[4] = biological target: T1, Hu/NoV/GI.1/Norwalk/1968/U.S. VLP; assay: blockade ELISA: VLP binding to PGM type III
Description: (§1) Pig Gastric Mucin Type III (PGM) (Sigma Chemicals) was used as a substrate for NoV VLP antibody-blockade assay as previously described. Briefly, PGM was resuspended in PBS at 5 mg/ml and coated onto 96 well U bottom polyvinyl plates Dynatech (Nunc, Thermo, USA) at 10 μg/ml in PBS for 4 hours. Plates were then blocked ON at 4° C. in 5% dry milk in 0.05% Tween₂₀-PBS. […] One hundred μl of VLPs-VHH mix were transferred to the PGM coated plates and incubated for 1 hour. Bound VLPs were detected by specific hyperimmune sera made in guinea pig, followed by anti-guinea pig IgG-HRP (KLP). ABTS/H₂O₂ was used as chromogen/substrate solution. All incubations were performed at room temperature and absorbance at 405 nm was measured. Mean % control binding, EC50 and criteria for determination of a blockade VHH were calculated as described above.

[5] = biological target: T1, Hu/NoV/GI.1/Norwalk/1968/U.S. VLP; assay: cell-based or functional assay
[6] = biological target: T1, Hu/NoV/GI.1/Norwalk/1968/U.S. VLP; assay: blockade ELISA: VLP binding to saliva Ly+
Description: (§2) For this assay saliva positive for Ly antigen collected from a secretor individual was used. Saliva was boiled (95° C.) for 10 minutes immediately after collection, centrifuged for 5 minutes at 13000×g and the supernatants stored at −20° C. until used. ELISA 96 well U bottom polyvinyl plates Dynatech (Nunc, Thermo, EEUU) were coated with 100 μl/well of a 1/400 saliva dilution in 50 μM carbonate-bicarbonate buffer, pH 9.6. The plate was incubated overnight at 37° C. in a wet atmosphere. In parallel, serial two-fold dilutions of VHH starting from 8 ug/ml were mixed with 1.5 ug/ml of NoV VLP Norwalk and MD145 and incubated for 1h at 37° C. After 6 washes and a blocking step with 5% dry milk/0.05% Tween₂₀-PBS, 50 ul of each VHH-VLP mixture was transferred to the reaction plate, in duplicate. The assay was developed using a specific polyclonal antiserum made in guinea pig (1:10,000) followed by a peroxidase labeled anti-guinea pig IgG (1:2,000) and ABTS/H₂O₂ as substrate chromogen (KPL), 100 μl per well. Absorbance at 405 nm was measured. Mean % control binding, EC50 and criteria for determination of a blockade VHH were calculated as described above.

[7] = biological target: T3, Hu/NoV/GII.4/CHDC4871/1977/U.S. VLP (human norovirus GII.4); assay: VLP ELISA
T3 construct: mature; baculovirus VLP; VP2 may be present

[8] = biological target: T4, Hu/NoV/GII.4/RockvilleD1/2012/U.S. VLP (human norovirus GII.4); assay: VLP ELISA
T4 construct: mature; baculovirus VLP; VP2 may be present

[9] = biological target: T5, Hu/NoV/GII.4/MD2004/2004/U.S. VLP (human norovirus GII.4); assay: VLP ELISA
T5 construct: mature; baculovirus VLP; VP2 may be present; also called MD2004 VLP

[10] = biological target: T6, Hu/NoV/GII.4/MD145-12/1997/U.S. VLP (human norovirus GII.4); assay: VLP ELISA
T6 construct: mature; baculovirus VLP; VP2 may be present

[11] = biological target: T7, Hu/NoV/GII.4/HS-191/2001/U.S. VLP (human norovirus GII.4); assay: VLP ELISA
T7 construct: mature; baculovirus VLP; VP2 may be present

[12] = biological target: T8, Hu/GII.6/Bethesda/2012/U.S. VLP (human norovirus GII.6); assay: VLP ELISA
T8 construct: mature; baculovirus VLP; VP2 may be present

[13] = biological target: T5, Hu/NoV/GII.4/MD2004/2004/U.S. VLP; assay: cell-based or functional assay
[14] = biological target: T6, Hu/NoV/GII.4/MD145-12/1997/U.S. VLP; assay: cell-based or functional assay
[15] = biological target: T6, Hu/NoV/GII.4/MD145-12/1997/U.S. VLP; assay: blockade ELISA: VLP binding to saliva Ly+
Description: as §2

[16] = biological target: T5, Hu/NoV/GII.4/MD2004/2004/U.S. VLP; assay: blockade ELISA: VLP binding to PGM type III
Description: as §1

[17] = biological target: T6, Hu/NoV/GII.4/MD145-12/1997/U.S. VLP; assay: blockade ELISA: VLP binding to synthetic HBGA H3
[18] = biological target: T9, Hu/NoV/GII.1/Hawaii/1971/U.S. VLP (human norovirus GII.1); assay: VLP ELISA
T9 construct: mature; baculovirus VLP; VP2 may be present

[19] = biological target: T10, Hu/NoV/Snow Mountain/GII.2/U.S. VLP (human norovirus GII.2); assay: VLP ELISA
T10 construct: mature; baculovirus VLP; VP2 may be present

[20] = biological target: T11, Hu/NoV/GII.2/Henryton/1971/U.S. VLP (human norovirus GII.2); assay: VLP ELISA
T11 construct: mature; baculovirus VLP; VP2 may be present

[21] = biological target: T12, Hu/NoV/GII.3/CHDC4031/1988/U.S. VLP (human norovirus GII.3); assay: VLP ELISA
T12 construct: mature; baculovirus VLP; VP2 may be present

[22] = biological target: T13, Hu/NoV/GII.7/DC119/U.S. VLP (human norovirus GII.7); assay: VLP ELISA
T13 construct: mature; baculovirus VLP; VP2 may be present

Row | Binder | minimum concentration of VHH able to recognize 100 ng of VLP [1] [ng/well] | minimum concentration of VHH able to recognize 100 ng of VLP [2] [ng/well] | HAI titer, 0 Rh- RBC [3] [µg/mL] | EC50 [4] [µg/mL] | minimum concentration of VHH able to recognize 100 ng of VLP [7] [ng/well] | minimum concentration of VHH able to recognize 100 ng of VLP [8] [ng/well] | minimum concentration of VHH able to recognize 100 ng of VLP [9] [ng/well] | minimum concentration of VHH able to recognize 100 ng of VLP [10] [ng/well] | minimum concentration of VHH able to recognize 100 ng of VLP [11] [ng/well] | EC50 [15] [µg/mL] | EC50 [16] [µg/mL] | also measured
1 | VHH 12.2 (VHH, llama VHH, Norwalk library; pHEN6, C-terminal His6 tag) VHH: DVQLQASGGGLVQAGGSLRLSCAASGSTISSYAMAWYRQAPGKRRELVAHISSGGSTNYADSVKGRFTISRDNAKNTVYLQMNSLKPEDTAVYYCNIYYGGDYYYTGVKPNPWGQGTQVTVSS | 1 | 1 | 0.8 | 2.59 |  |  |  |  |  |  |  | 
2 | VHH 14.5 (VHH, llama VHH, Norwalk library; pHEN6, C-terminal His6 tag) VHH: DVQLQASGGGLVQAGGSLRLSCVASARTFSSYAMGWFRQAPGKEREFVAAISWSGASTDYADSVKGRFTISRDNAKKTVYLQMNTLKPEDTAVYYCAAHHITPTGSYYYSEPLPVDMVYDYWGQGTQVTVSS | 0.5 | 0.5 | 0.05 | 0.351 |  |  |  |  |  |  |  | HAI titer, 0 Rh- RBC [5]: 0.78 µg/mL; EC50 [6]: 1.56 µg/mL
3 | VHH 3.2 (VHH, llama VHH, MD2004 library; pHEN6, C-terminal His6 tag; also called clone 3.2) VHH: QVQLQESGGGLVQPGGSLRLSCAASESTPSINTMGWYRQAPGKERELVATITSGGMTNYADSVKGRFTISRDNGKNTVYLQMNSLEPGDTAVYYCNLKRRDLQARFGGYWGQGTQVTVSS |  |  |  |  | 0.5 | 0.5 | 2 | 1 | 0.5 | 0.917 | 2.3 | minimum concentration of VHH able to recognize 100 ng of VLP [12]: 0.5 ng/well; HAI titer, B Rh+ RBC [13]: 0.19 µg/mL; HAI titer, B Rh+ RBC [14]: 0.19 µg/mL; EC50 [17]: 0.641 µg/mL
4 | VHH 19 (VHH, MD2004 library, subtractive biopanning; His6 tag; also called 19.1; clone 19) VHH: QVKLQQSGGGLVQPGGSLRLSCAASGFTFRNYAMSWVRQAPGKGLEWVSAIAAGGAVTKYADSVKGRFTISRDNARDTLYLQMNSLKPEDTAVYYCAKPRDFWYSPEFDFRGQGTQVTVSS |  |  |  |  | 1 | 2 | 2 | 4 | 1 | 1.3 | 0.583 | minimum concentration of VHH able to recognize 100 ng of VLP [18]: 1 ng/well; minimum concentration of VHH able to recognize 100 ng of VLP [19]: 2 ng/well; minimum concentration of VHH able to recognize 100 ng of VLP [20]: 2 ng/well; minimum concentration of VHH able to recognize 100 ng of VLP [21]: 0.5 ng/well; minimum concentration of VHH able to recognize 100 ng of VLP [12]: 2 ng/well; minimum concentration of VHH able to recognize 100 ng of VLP [22]: 1 ng/well; HAI titer, B Rh+ RBC [13]: 0.39 µg/mL; HAI titer, B Rh+ RBC [14]: 0.39 µg/mL
5 | VHH 8.1 (VHH, llama VHH, Norwalk library; pHEN6, C-terminal His6 tag) VHH: QVKLQESGGGLVQAGGSLRLSCAASGFTFATYAMAWYRQAPGKQRELVASISNFGSTAYGDSVKGRFTISRDNAKNTVYLEMNSLKSEDTAVYYCKRVRDVIGRPELWGQGTQVTVSS |  | 1 | 0.78 |  |  |  |  |  |  |  |  | 
6 | VHH 1 (VHH, llama VHH, MD2004 (GII.4) library; pHEN6, C-terminal His6 tag; also called 1.1; clone 1) VHH: QVQLQQSGGGLVQAGGSLRLSCAASGLAFSSYAITWLRQAPGTEREFVALISGSGSSTYYADSVKGRFTISRNNAKNTVYLQMNSLKPEDTAVYYCTASEFLLHPPPPNQKYDYWGQGTQVTVSS |  |  |  |  | 0.25 | 0.25 | 0.5 | 0.5 | 1 | 2.01 | 0.341 | EC50 [17]: 0.85 µg/mL
7 | VHH 2.1 (VHH, llama VHH, MD2004 library; pHEN6, C-terminal His6 tag; also called clone 2.1) VHH: QVQLQESGGGLVQAGGSLRLSCAASGLTFSSYAMGWFHQAPGKEREFVAAINWSGRDTYYADSVKGRFTISRDNRKNTVYLQMNSLKPEDTAVYYCAAAEFFSSGDPLPGMDYWGKGTLVTVSS |  |  |  |  |  | 0.25 | 0.5 | 8 | 0.5 |  |  | 
8 | VHH 16 (VHH, MD2004 library, subtractive biopanning; His6 tag; also called 16.1; clone 16) VHH: QVKLQQSGGGLVQPGGSLRLTCAASGFPFSTYAIRWVRRPPGKGLEWVSTIHPDFTTNYADSVSRRFTISRDNAKNTVYLQMNSLKPEDTAVYYCSRGVSGERGQGTQVTVSS |  |  |  |  |  |  | 0.5 |  |  |  | 0.767 | binding result [1]: no binding
9 | VHH 9.8 (VHH, llama VHH, Norwalk library; His6 tag) VHH: QVKLQQSGGGLVQAGGSLRLSCAASGTFSRYAMGWFRQAPGKEREFVAAINWTGGSTYYADSVKGRFTISGDNAKNTVYLQMNSLKPGDTAVYYCAAEVHPGDYGLTYMQSQYEYDYWGQGTQVTVSS | 0.5 |  |  | 1.14 |  |  |  |  |  |  |  | EC50 [6]: 1.72 µg/mL
10 | VHH 11.2 (VHH, llama VHH, Norwalk library; pHEN6, C-terminal His6 tag; also called VHH 11.1) VHH: DVQLQASGGGLVQAGGSLRLSCAASTSRFSSYAMGWSRQAPGKQRELVASISSSGLTTNYADSVKGRFTISRDNAKNTVYLQMNSLKPEDTAVYYCKADGRRYSLNEYWGQGTQVTVSS |  | 1 |  |  |  |  |  |  |  |  |  | 
